Data on 19 molecules can be found in patent publication US20260258084A1, “New Peptides as Selective IL-23 Receptor Antagonists” (Sanofi, priority 2022, published 2026).

To fix the notation:
T1: IL-23 receptor on the surface of HEK-Blue IL-23 cells (UniProt Q5VWK5 24-629, limits assumed)
T1 sequence (looked up): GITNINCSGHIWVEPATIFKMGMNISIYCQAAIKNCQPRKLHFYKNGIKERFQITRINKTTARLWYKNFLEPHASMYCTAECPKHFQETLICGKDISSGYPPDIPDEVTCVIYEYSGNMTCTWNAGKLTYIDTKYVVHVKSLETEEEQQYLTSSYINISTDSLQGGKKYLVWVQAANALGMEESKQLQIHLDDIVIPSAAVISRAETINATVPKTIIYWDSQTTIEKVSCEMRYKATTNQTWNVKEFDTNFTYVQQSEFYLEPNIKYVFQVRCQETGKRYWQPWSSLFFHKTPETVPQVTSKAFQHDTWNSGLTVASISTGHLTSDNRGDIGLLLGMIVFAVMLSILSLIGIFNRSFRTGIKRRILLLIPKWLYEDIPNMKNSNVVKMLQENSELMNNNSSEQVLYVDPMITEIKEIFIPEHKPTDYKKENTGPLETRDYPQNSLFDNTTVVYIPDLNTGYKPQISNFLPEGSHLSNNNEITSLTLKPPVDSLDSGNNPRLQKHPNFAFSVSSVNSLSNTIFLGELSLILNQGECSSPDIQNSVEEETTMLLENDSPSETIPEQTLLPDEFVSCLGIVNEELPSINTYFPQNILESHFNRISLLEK

B1: Compound of SEQ ID NO: 22 (peptide)
peptide: [Ava]CNT[Trp(7-Me)]K(Ac)C[Yde][2Nal][αMeL]ENH-NH2
modifications: lactam N-11; disulfide 2-7
SMILES: CC(=O)NCCCC[C@@H]1NC(=O)[C@H](Cc2c[nH]c3c(C)cccc23)NC(=O)[C@H]([C@@H](C)O)NC(=O)[C@H](CC(N)=O)NC(=O)[C@@H]2CSSC[C@H](NC1=O)C(=O)N[C@@H](Cc1ccc(OCCN(C)C)cc1)C(=O)N[C@@H](Cc1ccc3ccccc3c1)C(=O)N[C@@](C)(CC(C)C)C(=O)N[C@H](C(=O)N[C@@H](CC(N)=O)C(=O)N[C@@H](Cc1c[nH]cn1)C(N)=O)CCC(=O)NCCCCC(=O)N2
B2: Compound of SEQ ID NO: 27 (peptide)
peptide: [Ava]CNTWQC[Yde][2Nal][αMeL]ENN-NH2
modifications: lactam N-11; disulfide 2-7
SMILES: CC(C)C[C@]1(C)NC(=O)[C@H](Cc2ccc3ccccc3c2)NC(=O)[C@H](Cc2ccc(OCCN(C)C)cc2)NC(=O)[C@@H]2CSSC[C@H](NC(=O)CCCCNC(=O)CC[C@@H](C(=O)N[C@@H](CC(N)=O)C(=O)N[C@@H](CC(N)=O)C(N)=O)NC1=O)C(=O)N[C@@H](CC(N)=O)C(=O)N[C@@H]([C@@H](C)O)C(=O)N[C@@H](Cc1c[nH]c3ccccc13)C(=O)N[C@@H](CCC(N)=O)C(=O)N2
B3: Compound of SEQ ID NO: 26 (peptide)
peptide: [Ava]CNTWQC[Yde][2Nal][Thp]ENN-NH2
modifications: lactam N-11; disulfide 2-7
SMILES: C[C@@H](O)[C@@H]1NC(=O)[C@H](CC(N)=O)NC(=O)[C@@H]2CSSC[C@H](NC(=O)[C@H](CCC(N)=O)NC(=O)[C@H](Cc3c[nH]c4ccccc34)NC1=O)C(=O)N[C@@H](Cc1ccc(OCCN(C)C)cc1)C(=O)N[C@@H](Cc1ccc3ccccc3c1)C(=O)NC1(CCOCC1)C(=O)N[C@H](C(=O)N[C@@H](CC(N)=O)C(=O)N[C@@H](CC(N)=O)C(N)=O)CCC(=O)NCCCCC(=O)N2
B4: Compound of SEQ ID NO: 2 (peptide)
peptide: [Ahx]CNTWQC[Phe(4-OMe)][2Nal][Aib]ENN-NH2
modifications: lactam N-11; disulfide 2-7
SMILES: COc1ccc(C[C@@H]2NC(=O)[C@@H]3CSSC[C@H](NC(=O)CCCCCNC(=O)CC[C@@H](C(=O)N[C@@H](CC(N)=O)C(=O)N[C@@H](CC(N)=O)C(N)=O)NC(=O)C(C)(C)NC(=O)[C@H](Cc4ccc5ccccc5c4)NC2=O)C(=O)N[C@@H](CC(N)=O)C(=O)N[C@@H]([C@@H](C)O)C(=O)N[C@@H](Cc2c[nH]c4ccccc24)C(=O)N[C@@H](CCC(N)=O)C(=O)N3)cc1
B5: Compound of SEQ ID NO: 34 (peptide)
peptide: [Nmapt]CKWQC[AEF][2Nal][Thp]EA[dL]-NH2
modifications: lactam N-10; disulfide 2-6; not fully specified (residue 3); printed as Nmapt(§1)-C(§3)(@2)-K[aAc](@3)-W-Q-C(@2)-Yae-Nal-Thp-E(§1)-A-(D-Leu)-NH2; reading uncertain; also: Cys2 carboxyl joined to Lys3 epsilon-NH2 (isopeptide bond)
B6: Compound of SEQ ID NO: 21 (peptide)
peptide: [Ava]CNT[Trp(7-Me)]K(Ac)C[Yde][2Nal][Thp]ENH-NH2
modifications: lactam N-11; disulfide 2-7
SMILES: CC(=O)NCCCC[C@@H]1NC(=O)[C@H](Cc2c[nH]c3c(C)cccc23)NC(=O)[C@H]([C@@H](C)O)NC(=O)[C@H](CC(N)=O)NC(=O)[C@@H]2CSSC[C@H](NC1=O)C(=O)N[C@@H](Cc1ccc(OCCN(C)C)cc1)C(=O)N[C@@H](Cc1ccc3ccccc3c1)C(=O)NC1(CCOCC1)C(=O)N[C@H](C(=O)N[C@@H](CC(N)=O)C(=O)N[C@@H](Cc1c[nH]cn1)C(N)=O)CCC(=O)NCCCCC(=O)N2
B7: Compound of SEQ ID NO: 20 (peptide)
peptide: [Ava]CNT[Trp(7-Me)]K(Ac)C[Yde][2Nal][Aib]ENH-NH2
modifications: lactam N-11; disulfide 2-7
SMILES: CC(=O)NCCCC[C@@H]1NC(=O)[C@H](Cc2c[nH]c3c(C)cccc23)NC(=O)[C@H]([C@@H](C)O)NC(=O)[C@H](CC(N)=O)NC(=O)[C@@H]2CSSC[C@H](NC1=O)C(=O)N[C@@H](Cc1ccc(OCCN(C)C)cc1)C(=O)N[C@@H](Cc1ccc3ccccc3c1)C(=O)NC(C)(C)C(=O)N[C@H](C(=O)N[C@@H](CC(N)=O)C(=O)N[C@@H](Cc1c[nH]cn1)C(N)=O)CCC(=O)NCCCCC(=O)N2
B8: Compound of SEQ ID NO: 24 (peptide)
peptide: [Ava]CNT[Trp(7-Me)]LC[Yde][2Nal][Thp]EN[3Pal][Sar]-NH2
modifications: lactam N-11; disulfide 2-7
SMILES: Cc1cccc2c(C[C@@H]3NC(=O)[C@H]([C@@H](C)O)NC(=O)[C@H](CC(N)=O)NC(=O)[C@@H]4CSSC[C@H](NC(=O)[C@H](CC(C)C)NC3=O)C(=O)N[C@@H](Cc3ccc(OCCN(C)C)cc3)C(=O)N[C@@H](Cc3ccc5ccccc5c3)C(=O)NC3(CCOCC3)C(=O)N[C@H](C(=O)N[C@@H](CC(N)=O)C(=O)N[C@@H](Cc3cccnc3)C(=O)N(C)CC(N)=O)CCC(=O)NCCCCC(=O)N4)c[nH]c12
B9: Compound of SEQ ID NO: 3 (peptide)
peptide: [Ahx]CNTWQC[Phe(4-OMe)][2Nal][Aib]DNN-NH2
modifications: lactam N-11; disulfide 2-7
SMILES: COc1ccc(C[C@@H]2NC(=O)[C@@H]3CSSC[C@H](NC(=O)CCCCCNC(=O)C[C@@H](C(=O)N[C@@H](CC(N)=O)C(=O)N[C@@H](CC(N)=O)C(N)=O)NC(=O)C(C)(C)NC(=O)[C@H](Cc4ccc5ccccc5c4)NC2=O)C(=O)N[C@@H](CC(N)=O)C(=O)N[C@@H]([C@@H](C)O)C(=O)N[C@@H](Cc2c[nH]c4ccccc24)C(=O)N[C@@H](CCC(N)=O)C(=O)N3)cc1
B10: Compound of SEQ ID NO: 33 (peptide)
peptide: [Ava]C[εLys](Ac)WQC[Yde][2Nal][Thp]EA[dL]-NH2
modifications: lactam N-10; disulfide 2-6; also: Cys2 carboxyl bonded to Lys3 epsilon-NH2 (isopeptide), Lys3 alpha-N acetylated
B11: Compound of SEQ ID NO: 30 (peptide)
peptide: [Ava]C[εLys](Ac)WQC[Yde][2Nal][Thp]ENG-NH2
modifications: lactam N-10; disulfide 2-6; also: Cys2 carboxyl bonded to Lys3 epsilon-NH2 (isopeptide), Lys3 alpha-N acetylated
B12: Compound of SEQ ID NO: 29 (peptide)
peptide: [Ava]C[εLys](Ac)WQC[Yde][2Nal][Aib]ENG-NH2
modifications: lactam N-10; disulfide 2-6; also: Cys2 carboxyl bonded to Lys3 epsilon-NH2 (isopeptide), Lys3 alpha-N acetylated
B13: Compound of SEQ ID NO: 31 (peptide)
peptide: [Ava]C[εLys](Ac)WQC[Yde][2Nal][αMeL]ENG-NH2
modifications: lactam N-10; disulfide 2-6; also: Cys2 carboxyl bonded to Lys3 epsilon-NH2 (isopeptide), Lys3 alpha-N acetylated
B14: Compound of SEQ ID NO: 32 (peptide)
peptide: [Ava]C[εLys](Ac)WQC[Yde][2Nal][Aib]EAG-NH2
modifications: lactam N-10; disulfide 2-6; also: Cys2 carboxyl bonded to Lys3 epsilon-NH2 (isopeptide), Lys3 alpha-N acetylated

Starred links: 1 amine or outer side, 2 acyl side, 3 side chain; linkers in the order of their positions; H or OH if unused. Positions of bridges follow the written chain, without caps; N, C: chain ends. Non-standard residues stand in square brackets, D forms with d. Yde = (2S)-2-amino-3-[4-[2-(dimethylamino)ethoxy]phenyl]propanoic acid, CN(C)CCOc1ccc(C[C@H](N[*:1])C(=O)[*:2])cc1; NdmK = (2S)-6-amino-2-(dimethylamino)hexanoic acid, CN(C)[C@@H](CCCCN[*:3])C(=O)[*:2]; Phe(4-OMe) = COc1ccc(C[C@H](N[*:1])C(=O)[*:2])cc1; Trp(7-Me) = Cc1cccc2c(C[C@H](N)C(=O)O)c[nH]c12; αMeLys(Me2) = CN(C)CCCC[C@](C)(N)C(=O)O; 2Nal = N[C@@H](Cc1ccc2ccccc2c1)C(=O)O; εLys = N[C@@H](CCCCN[*:1])C(=O)[*:2]; AEF = NCCOc1ccc(C[C@H](N)C(=O)O)cc1; 3Pal = N[C@@H](Cc1cccnc1)C(=O)O; Dad = desamino-aspartamic acid; Lys(Me) = CNCCCC[C@H](N)C(=O)O; αMeL = CC(C)C[C@](C)(N)C(=O)O; Nmapt = not defined here; Thp = NC1(C(=O)O)CCOCC1; Aib = CC(C)(N)C(=O)O; Ahx = NCCCCCC(=O)O; Ava = NCCCCC(=O)O; Sar = CNCC(=O)O

The target of the test is T1, IL-23 receptor on the surface of …. The test can be described thus: cell-based or functional assay.
Take B1: the “pSTAT3 (nM)” value stood at 1.37 nM.

As to [Dad]CNTWQC[Yde][2Nal][Aib][Lys(Me)]NN-NH2 (lactam N-11; disulfide 2-7) [Compound of SEQ ID NO: 25], the “pSTAT3 (nM)” value amounted to 39.2 nM.

On to [Ava]CNTWK(Ac)C[Yde][2Nal][Aib]EN[3Pal]I-NH2 (lactam N-11; disulfide 2-7; also: places amidation at position 13) [Compound of SEQ ID NO: 37], for which the “pSTAT3 (nM)” value worked out at 2 nM.

Consider B2, for which the “pSTAT3 (nM)” value turned out to be 1.71 nM.

With [Dad]CNT[Trp(7-Me)]K(Ac)C[Yde][2Nal][αMeL]KNH-NH2 (lactam N-11; disulfide 2-7) [Compound of SEQ ID NO: 23], the “pSTAT3 (nM)” value came out at 3.32 nM.

For the molecule B3, the “pSTAT3 (nM)” value was 3.37 nM.

In the case of B4, the “pSTAT3 (nM)” value worked out at 54 nM.

Regarding B5, the “pSTAT3 (nM)” value was 13.3 nM.

As for B6, the “pSTAT3 (nM)” value was 2.67 nM.

For [Ava]CNTWK(Ac)C[Yde][2Nal][Aib]ENNI-NH2 (lactam N-11; disulfide 2-7; also: places amidation at position 13, §1 lactam bridge; @2 disulfide bridge) [Compound of SEQ ID NO: 38], the “pSTAT3 (nM)” value worked out at 11.9 nM.

As to B7, the “pSTAT3 (nM)” value came out at 3.12 nM.

On to B8, for which the “pSTAT3 (nM)” value was determined as 0.59 nM.

With B9, the “pSTAT3 (nM)” value was found to be 17.2 nM.

Regarding B10, the “pSTAT3 (nM)” value came out at 53.8 nM.

Consider B11, for which the “pSTAT3 (nM)” value turned out to be 5.41 nM.

For the molecule B12, the “pSTAT3 (nM)” value turned out to be 8.16 nM.

On to B13, for which the “pSTAT3 (nM)” value was determined as 5.23 nM.

Consider [Ava]C[NdmK]WK(Ac)C[Yde][2Nal][αMeLys(Me2)]EN[3Pal][Sar]-NH2 (lactam N-10; disulfide 2-6) [Compound of SEQ ID NO: 36], for which the “pSTAT3 (nM)” value came to 13.9 nM.

Turning to B14, the “pSTAT3 (nM)” value turned out to be 20.5 nM.
